According to patent publication US20200277405A1, “COMPOSITION FOR ANTIBODY-DRUG CONJUGATE DIRECTED AGAINST TUMOR-CELL ASSOCIATED POLYSIALIC ACID” (Cornell University, priority 2019, published 2020):

B1: mo735: well-known mouse-derived IgG2a monoclonal antibody 735 targeting polysialic acid (antibody, V domains shown)
VH: QIQLQQSGPELVRPGASVKISCKASGYTFTDYYIHWVKQRPGEGLEWIGWIYPGSGNTKYNEKFKGKATLTVDTSSSTAYMQLSSLTSEDSAVYFCARGGKFAMDYWGQGTSVTVSS
VL: DVVMTQTPLSLPVSLGDQASISCRSSQSLVHSNGNTYLYWYLQKPGQSPKPLIYRVSNRFSGVPDRFSGSGSGTDFTLKISRVEAEDLGVYFCFQGTHVPYTFGGGTRLEIK
B2: ch735: chimeric human IgG1 polySia-specific mAb made by swapping variable regions of mouse mAb 735 (antibody, V domains shown)
VH: B1 VH
VL: B1 VL

What was measured:
cells and tissues = conditions: previously published IHC results (Zhang et al.); cited from earlier work
[1] = previous SPR and ITC experiments; cited from earlier work
[2] = test system: polySia in formalin-fixed, paraffin-embedded (FFPE) human tissue sections of SCLC; assay: IHC of FFPE tissue sections
Description: FIGS. 6A-6D depict immunostaining of antibody ch735 to polySia-expressing cancer cells. […] Data are the geometric mean fluorescence intensity (MFI), with the values reported as the average of three replicates and the error represented as the standard deviation of the mean. […] Cells were stained with ch735, wheat germ agglutinin (WGA) to stain the cell membrane, and Hoescht to stain nuclei. Scale bars, 10 μm. […] Scale bars, 200 μm.
The avidin-biotin complex (ABC) immunoperoxidase method was performed essentially as previously described (Zhang et al., “Selection of Tumor Antigens as Targets for Immune Attack Using Immunohistochemistry: I. Focus on Gangliosides,” Int. J. Cancer 73:42-9 (1997), which is hereby incorporated by reference in its entirety). Briefly, the sections were quenched with 0.1% H2O2 in PBS for 15 min, blocked with avidin and biotin reagents (Vector, Burlingame, Calif.) for 10 min each, incubated in 10% serum from which the second antibody was raised and incubated with mAb 735 at 1 μg/ml for 1 h. This concentration was selected based on strong reactivity against known positive target cells and little or no background against stroma. The sections were subsequently incubated with biotinylated secondary antibodies for 30 min, and then incubated in ABC reagent per manufacturer's protocols (ABC Kit, Vector Laboratories, PK-6102) for 30 min. […]

[3] = test system: polySia-positive cell line SH-SY5Y; assay: Time course of antibody internalization; format: cell-based, human
Method: FIGS. 10A-10E depict internalization of ch735 into polySia-positive cancer cells. […] Nuclei were stained by Hoescht (blue). Scale bar, 10 Fluorescence intensity was measured across the dotted line and normalized to the maximum value in each channel. Arrows indicate regions of colocalization. […] Nuclei were stained by Hoescht. Scale bar, 10 Fluorescence intensity was measured across the dotted line and normalized to the maximum value in each channel. Arrows indicate regions of colocalization. The inset show only the ch735 and DNA channels of the boxed region. […] Scale bar, 10 Fluorescence intensity was measured across the dotted white line and normalized to the maximum value in each channel. […]
To calculate percent internalization, pre-chilled cells were incubated with 50 nM ch735 on ice for 1 h and then washed to remove unbound antibodies. […] Cells were fixed in 2% paraformaldehyde for 20 min and then stained with AF488-labeled antibody against human IgG and analyzed by flow cytometry and FlowJo software. Receptor-antibody complex internalization was calculated using the geometric mean as percent fluorescent intensity loss at 37° C. relative to that on ice. For each sample, the geometric mean fluorescence intensity (MFI) of 10,000 cells was measured in triplicate.

polysialylated NCAM = assay: Glycoprotein array specificity profiling; format: binding, chicken
Method: (§1) FIGS. 2A-2D depict binding specificity and affinity of the ch735 antibody. […] ELISA signals (Abs370) were obtained with anti-human IgG secondary antibodies. […] Antibodies were assayed at 1 μg/mL and detected with anti-human IgG secondary antibodies. […] Antibodies were assayed at 10 μg/mL and detected with anti-mouse IgG secondary antibodies.
as §1, with “3A-3D” for “2A-2D”, “mo735” for “the ch735”, “anti-mouse” for “anti-human”
Specificity of mo735 and ch735 was determined using printed glycan arrays 5.3 and 5.4 at the CFG. Both antibodies were analyzed at 10 μg/mL with 5 μg/mL of anti-mouse or anti-human Alexa-Fluor 647 (AF647)-conjugated secondary, respectively. Specificity of mo735 (1 μg/mL) and ch735 (10 μg/mL) was also assessed on a custom glycoprotein array that contained ˜40-50 glycoproteins including chicken brain NCAM and endoN-treated chicken brain NCAM.

| Molecule | IHC reactivity with cells and tissues (cells and tissues) | preferred polySia chain length [1] | IHC staining of polySia ([2]; FFPE human SCLC tissue sections) | IHC staining of polySia ([2]; adjacent normal tissue, except bronchial epithelial cells and alveolar macrophages) | antibody internalized ([3]; 15 min) [%] | maximum internalization ([3]; reached by 30 min) [%] | glycoprotein array binding (polysialylated NCAM; array of ~50 glycoproteins) | signal towards any other glycomolecules (polysialylated NCAM; microarrays, including endoN-treated NCAM spotted on the glycoprotein array) |
| --- | --- | --- | --- | --- | --- | --- | --- | --- |
| B1 | reacted with only a limited number of cells and tissues | 8-11 sialic acid residues | strong staining | little to no staining | – | – | – | – |
| B2 | – | – | – | – | ~30 | 40 | strong preference for polysialylated NCAM | no significant signal |
